The text below walks through data of paper PMC3859071, “Development of a Multiplex Sandwich Aptamer Microarray for the Detection of VEGF165 and Thrombin”.

Series [1] addresses T1, VEGF165 (human, UniProt P15692-4 27-191). Description: sandwich aptamer microarray; detected with VEa5-Cy5; EMSA: TBSE (0.05 mM EDTA, 10 mM Tris-HCl, 100 mM NaCl, pH 7; Vap7 folded with +100 mM KCl), 25 C, 30-60 min, 0.1 uM aptamer; 12% gel in 50 mM glycine pH 9.5 with or without 10 mM KCl. Microarray: TBSE, 25 C, 30 min, PBS washes. The settings on record: protein: commercial; chain copies: 2. A general note: Mobility shift assays separate free from complexed probe on a gel.

Series [2] addresses T1, VEGF165. The experiment in a line: EMSA supershift; 10 uM VEGF165; ternary complex; EMSA: TBSE (0.05 mM EDTA, 10 mM Tris-HCl, 100 mM NaCl, pH 7; Vap7 folded with +100 mM KCl), 25 C, 30-60 min, 0.1 uM aptamer; 12% gel in 50 mM glycine pH 9.5 with or without 10 mM KCl. Microarray: TBSE, 25 C, 30 min, PBS washes. The settings on record: protein: commercial; chain copies: 2; label: 5'-FAM on strand 2; two separate aptamers, not a duplex.

Series [3] deals with T1, VEGF165. Description: EMSA; 100 mM KCl; EMSA: TBSE (0.05 mM EDTA, 10 mM Tris-HCl, 100 mM NaCl, pH 7; Vap7 folded with +100 mM KCl), 25 C, 30-60 min, 0.1 uM aptamer; 12% gel in 50 mM glycine pH 9.5 with or without 10 mM KCl. Microarray: TBSE, 25 C, 30 min, PBS washes. The settings on record: protein: commercial; chain copies: 2; G4.
Series [4] has as its target T1, VEGF165. Description: EMSA; EMSA: TBSE (0.05 mM EDTA, 10 mM Tris-HCl, 100 mM NaCl, pH 7; Vap7 folded with +100 mM KCl), 25 C, 30-60 min, 0.1 uM aptamer; 12% gel in 50 mM glycine pH 9.5 with or without 10 mM KCl. Microarray: TBSE, 25 C, 30 min, PBS washes. The settings on record: protein: commercial; chain copies: 2; three stem-loops (predicted).
The target in series [5] is T1, VEGF165. Description: EMSA; 5 uM VEGF165; EMSA: TBSE (0.05 mM EDTA, 10 mM Tris-HCl, 100 mM NaCl, pH 7; Vap7 folded with +100 mM KCl), 25 C, 30-60 min, 0.1 uM aptamer; 12% gel in 50 mM glycine pH 9.5 with or without 10 mM KCl. Microarray: TBSE, 25 C, 30 min, PBS washes. Conditions: protein: commercial; chain copies: 2; label: 5'-FAM; three stem-loops (predicted).
Series [6] has as its target T1, VEGF165. The experiment in a line: EMSA; 5 uM VEGF165; two shifted bands; EMSA: TBSE (0.05 mM EDTA, 10 mM Tris-HCl, 100 mM NaCl, pH 7; Vap7 folded with +100 mM KCl), 25 C, 30-60 min, 0.1 uM aptamer; 12% gel in 50 mM glycine pH 9.5 with or without 10 mM KCl. Microarray: TBSE, 25 C, 30 min, PBS washes. Conditions: protein: commercial; chain copies: 2; label: 5'-FAM; G4.

T1 sequence (P15692 other isoform, or with tags, fused parts or gaps): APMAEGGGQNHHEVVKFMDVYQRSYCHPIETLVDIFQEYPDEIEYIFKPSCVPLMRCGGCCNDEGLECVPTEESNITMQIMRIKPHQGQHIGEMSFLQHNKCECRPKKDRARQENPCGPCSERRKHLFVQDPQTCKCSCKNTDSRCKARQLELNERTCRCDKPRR

B1: Random DNA-NH2 (ssDNA)
DNA: TCACGCTTATTTAAGAAGCTGTTTGGTGGAGG
modifications: 5'-amino
As to B1, the binding result in series [1] is given as “no binding”.

B2: VEa5-NH2 + Vap7-FAM (mixed)
DNA 1: ATACCAGTCTATTCAATTGGGCCCGTCCGTATGGTGGGTGTGCTGGCCAGATAGTATGTGCAATCA
DNA 2: ATACCAGTCTATTCAATTGCACTCTGTGGGGGTGGACGGGCCGGGTAGA
modifications: 5'-amino on strand 1
Consider B2, for which the binding result in series [2] was “binds”.

B3: Vap7 (structured_DNA)
DNA: ATACCAGTCTATTCAATTGCACTCTGTGGGGGTGGACGGGCCGGGTAGA
As to B3, the binding result in series [3] is “binds”.

B4: VEa5 (structured_DNA)
DNA: ATACCAGTCTATTCAATTGGGCCCGTCCGTATGGTGGGTGTGCTGGCCAGATAGTATGTGCAATCA
Regarding B4, the binding result in series [4] is recorded as “binds”.

B5: Vap7-NH2 + VEa5-FAM (mixed)
DNA 1: ATACCAGTCTATTCAATTGCACTCTGTGGGGGTGGACGGGCCGGGTAGA
DNA 2: ATACCAGTCTATTCAATTGGGCCCGTCCGTATGGTGGGTGTGCTGGCCAGATAGTATGTGCAATCA
modifications: 5'-amino on strand 1
For B5, the binding result in series [2] was “binds”.

B6: VEa5-FAM (structured_DNA)
DNA: ATACCAGTCTATTCAATTGGGCCCGTCCGTATGGTGGGTGTGCTGGCCAGATAGTATGTGCAATCA
As to B6, the binding result in series [5] is “binds”.

B7: Vap7-FAM (structured_DNA)
DNA: ATACCAGTCTATTCAATTGCACTCTGTGGGGGTGGACGGGCCGGGTAGA
Take B7: in series [6], the binding result was “binds”.
